One substance from publication PMC6091153 can be followed below.

“And” between values parts separate entries of the source, which are not always exact repeats. Identical values can stand only once.

For the experiment, the target named is Saccharomyces cerevisiae glutaredoxin Grx6 (recombinant, without the signal peptide) (S. cerevisiae) (UniProt Q12438). The experiment in a line: SEC; gel filtration of freshly purified recombinant protein on a Superdex 75 column, elution followed at 280 nm and 430 nm; the dimer peak is brown (Fe-S centre); FeSO4·7H2O and (NH4)2Fe(SO4)2·6H2O added in one run (more dimer and tetramer).

As for “Saccharomyces cerevisiae glutaredoxin Grx6 (recombinant, without the signal peptide) (from UniProt Q12438 30-231) (natural protein)”, the stoichiometry N is 4 and 2.

The stoichiometry N is a count of units in the complex or per binding partner.
